{"source": "the nanobody polyreactivity screen of Harvey et al. (2022)", "data": [{"assay": "yeast display, Sf9 membrane polyspecificity reagent, FACS + sequencing; frameworks hold sequencing errors", "in_short": "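Galactose-induced (36–48 hours) yeast carrying a synthetic nanobody display library were exposed to 10% biotinylated, detergent-solubilized Sf9 membrane reagent at 4 °C for 1 hour. FACS followed streptavidin microbead enrichment, using low and high (top ~1%) gates for expression (anti-HA) and reagent binding (streptavidin). Colony PCR, MiSeq 2 × 250 sequencing and CDR-length filtering followed. Labels for polyreactivity reflect the gate of origin.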", "values": [{"sequence": "QLQLVESGGGLVQAGGSLRLSCAASGRIFKLNAMGWSRQAPGKERELVAAINSGTRTYYADSVKGRFTISRDNAKNTVYLQMNSLKPEDTAVYYCAAEGVWWYSRYDYWGQGTQVTVSS", "polyreactivity (PSR sort gate)": "high polyreactivity"}, {"sequence": "QVQLVESGGGLVQAGGSLRLSCAASGRIFDLNAMGWYRQAPGKERELVAVIDSYGSTYYADSVKGRFTISRDNAKNTVYLQMNSQKPEDSAVYYCTKYWYSRHVRYWAYYAEQRYDYWGQGTQVTVSS", "polyreactivity (PSR sort gate)": "low polyreactivity"}, {"sequence": "QVQLVESGGGLVQAGGSLRLSCAASGFTFPRNAMGWYRQAPGKERELVAAISRGGGGTYYADSVKGRFTISRDNAKNTVYLQMNSLKPEDTAVYYFNAVYPGGSYKYDYWVQGTQVTVSS", "polyreactivity (PSR sort gate)": "high polyreactivity"}, {"sequence": "QVQLVESGGGLVQAGGSLRLSCAASGSIFYRNAMGWYRQAPGKERELVAAISWSGASTYYADSVKGRFTISRDNAKNTVFLQLNSLKPEDTAVYYCATDDFWNVKFYAYYPEFDYWGQGTQVTVSS", "polyreactivity (PSR sort gate)": "low polyreactivity"}, {"sequence": "KVQLQESGGGLVQAGGSLRPSCAASGSITDGVPMGWDRQAPGEERELVATTVLGATTNYADSVKGRFTISRGNAKNTVYLLMNSLKPEETAVYYCAAPLRYDKGFSYWRQGTQVTVSS", "polyreactivity (PSR sort gate)": "low polyreactivity"}, {"sequence": "QVQLVESGGGLVQAGGSLRLSCAASGRTFFKYAMGWYRQAPGKERELVAAIRSGTSTYYADSVKGRFTISRDNAKNTVYLHMNSLKPEDTAVYYCAADWHSKIGKGYDYWGQGTQVTVSS", "polyreactivity (PSR sort gate)": "high polyreactivity"}, {"sequence": "QVQHVESGGGLVQAGGSLRLSCAASGFIFDNYAMGWYRQSPGKERELVAAISRSGGSTYYADSVKGRFTISRDNAKTTVYLQMNSLKPEDTAVYYCATSGPRGWSLHDYWGQGTQVTVSS", "polyreactivity (PSR sort gate)": "high polyreactivity"}, {"sequence": "QVQLVESGGGLVQAGGSLRLSCAASGRTFVNYALGWYRQAPWKERELVAGISSDGSTYYADSEKGRFTISRDNAKNTVYLQMNSLKPEDTAVYYCATEIRITGLYRYDYWGQGTQVTVSS", "polyreactivity (PSR sort gate)": "low polyreactivity"}, {"sequence": "QVQLVESGGGLVQAGGSLRLSCAASGFIFFQYAMGWYRQAPGKERELVAAISSGGNTYYADSVKGRFTISRDNAKNTVYLQMNSLKPEDTAVYYCAAYYPLRKGYGYWGQGTQVTVSS", "polyreactivity (PSR sort gate)": "high polyreactivity"}, {"sequence": "QVQLVESGGGLVQAGGSLRLSCAASGIIFKIYAMGWYRQAPGKERELVAAISWRGGSTYYADSVKGRFTISRDNAKNTVYLQMNSLKPEDTAVYYCAAARGYRTGYGYWGQGTQVTVSS", "polyreactivity (PSR sort gate)": "high polyreactivity"}, {"sequence": "QVQLVESGGGLVQAGGSLRLSCAASGSIFTSNAMGWYRQAPVKERELVASISSDGSTKYADSVKGRFTISRDNAKNTVYLQMNSLKPEDTAVYYCAADLGYWVYVEYDYWGQGTQVTVSS", "polyreactivity (PSR sort gate)": "low polyreactivity"}, {"sequence": "QFQLVESVGGLVQAGGSLRLSCAASGNIFPAYAMGWYRQAPGKERELVAAISKSGGRTYYADSVKGRFTISRDNAKNTVYLQMNSQKPEDTAVYYALLTVLRAVPYSVRYDYCGQGTQVTVSS", "polyreactivity (PSR sort gate)": "high polyreactivity"}, {"sequence": "QVQLVESGGGLVQAGGSLRLSCAASGFIISNNAMGWYRQAPGKERELVAVINGGGSTYYADSVKGRFTISRDTAKNTVYLQMNSLKPEDTAVYYCNADRFADYDYWGQGTQVTVSS", "polyreactivity (PSR sort gate)": "low polyreactivity"}, {"sequence": "QVQLVESGGGLVQARGSLRLSCAASGLTFTVDAMGWYRQAPGKEREFVAAISYSAGRTYYADSVKGRFTISRDNAKNTVYLQMNSLKPADTAVYYCAAATYYSIYDYWGQGTQVTVSS", "polyreactivity (PSR sort gate)": "high polyreactivity"}, {"sequence": "QVHLVESGGGLVQAGGSLRLSCAASGRTIRLNVMGWYRQAPGKERELVAAITRSVGSTYYADSVKGRFTISRDYAKNTVYLQMNSLKPEDTAVYYCNAVRSRYYDDYDYWGQGTQVTVSS", "polyreactivity (PSR sort gate)": "high polyreactivity"}, {"sequence": "QVQLVESGGGLVQAGGSLRLSCAASGRTILVYAMGWYRPAPGKERELVAAISSDGSTNYADSVKGRFTISRDNAMNTVYLQMNSLNPEDTAVYYCARDYYAVSYLYDYWGQGTQVTVSS", "polyreactivity (PSR sort gate)": "low polyreactivity"}, {"sequence": "QVQLVESGGGLVQAGGSLRVSCAASGSTFVYYAMGWYRQAPGKERELVAAITASGGGTYYADSVKGRFTISRDNAKNTVYLQMNSLKPEDTAVYYCNRGYDYWGQGTQVTVSS", "polyreactivity (PSR sort gate)": "low polyreactivity"}, {"sequence": "QVQLVESGGGLVQAGGSRSLSCAASGRIFTVYAMGWYRQAPGKERELVAAISGRGGRTTYADSVKGRFTISRDNAKNTVFLQMNSLKPEDTAVYYCAAAYLRYVSTQYHYDYWGEGTQVTVSS", "polyreactivity (PSR sort gate)": "low polyreactivity"}, {"sequence": "QVQLVESGGGLVQAGGSLRLSCAASGIIFRNYAMGWYRQAAGNERAWVAAISWTGDSTYYADSVKGRFTISRDNAKNTVYLQMNSQKPEETAVYYCAAEAYYGLWMDYWGQGTQVTVSS", "polyreactivity (PSR sort gate)": "low polyreactivity"}, {"sequence": "QGQLVDSGGGLVQAGGSLRLSCAASGSIVRPNAMGWYRPAPGKEREFVAAITSSSGPTYYADSVKGRFTISRDNAKNTVYLQMNSLKPEDTAVYYCAAKYTSRSYKYDYWGHGTQVTVSS", "polyreactivity (PSR sort gate)": "high polyreactivity"}, {"sequence": "QVQLVESGGGLVQAGGSLRLSCAASGRILVSYAMGGYRQAPGKERELVAAISRSGGSTYYADSVKGRFTISLDTAKNTVYLQMNSLKPEDTAVYYCNVYRFSRYDYWGQGTLVTVSS", "polyreactivity (PSR sort gate)": "high polyreactivity"}, {"sequence": "QVQLVESGGGLVQAGGSLRLRCAASGSTCWFSAMGWSRQATGTERELVATITIGARTYADSVKGRCTISRDNPKTTVYVQMNSLKPEETAVYYCAARRRRLEYDYGRNDYWGQGTQVTVTS", "polyreactivity (PSR sort gate)": "low polyreactivity"}, {"sequence": "QVQLVESGGGLVQAGGSLRLSCAASGSTFEANAMGWYRQAPGKERELVAVITWTGGSTYYADSVKGRFTISRDNAKNTVYLQMNSLKPEDTAVYYCAADGVVPCRFFWPAHEYDYWGQGTQVTVSS", "polyreactivity (PSR sort gate)": "low polyreactivity"}, {"sequence": "QVQLVESCGGLVQAGGSLRLSCAASGSTFASYAMGWYRQAPGKEREFVAAISRSGGSTYYADSVKGRFTISRDNAKNTVYLQMNSLKPEDTAVYYCAARSPSADEYYYWGQGTQVTVSS", "polyreactivity (PSR sort gate)": "low polyreactivity"}, {"sequence": "QVQLVESGGGLVQAGGSLRLSCAASGSTIPRHAMGWYRQAPGKERELVAAITSGGSTNYADSVKGRFTISRDNAKNTVYLQMNSLKPEDTAVYYCAADVIVRVYYYYYVLMDYWGQGTQVTVSS", "polyreactivity (PSR sort gate)": "low polyreactivity"}, {"sequence": "QVQLVESGGGLVQAGGSLRLSCAASGSTFDANAMGWYRQEPGKERELVATISDGGSTNYADSVKGRFTISRDNAKNTVYLQMNSLKPEDTAVYYCAADFSPWGGWYMSLDYWGQGTQVTVSS", "polyreactivity (PSR sort gate)": "low polyreactivity"}, {"sequence": "QVQLVESGGGLVQAGGSLRLSCASTGSTFTTYAMGWYRQPPGKERELVAAISSRSTRTYYADSVKGRFTISRDNAKNTVYLQMNSLKPEDTAVYYCAASVPWKYEYWGQGTQVTVSS", "polyreactivity (PSR sort gate)": "high polyreactivity"}, {"sequence": "QVPLVEAGGGLVQAGGSLRVSCAASGITFQLYGMGWYSQAPGKERELVAAITGSDGITYYADSVKGRFTISLDNAKNTVYLPMNSLKPEDTAVYYCAAEWWDYWNEYDYWGQGTQVTVSS", "polyreactivity (PSR sort gate)": "high polyreactivity"}, {"sequence": "QVQLVESGGGLVQAGGSLRLSCAASGSTFTPNAMGWYRQAPGKERELVAASRYTGVGTYYADSVKGRFTISRDNAKNTVYLQMNSPKPEDTAVYYCNRVSRYYNYDYWGQGTQVTVSS", "polyreactivity (PSR sort gate)": "high polyreactivity"}, {"sequence": "QVQLVESGGGLVQAGGSLRLSCAASGSIFGTYAMGWYRQAPGKERELVAAITGSGGRTYYADSVKGRFTISRDNAKNTVYLQMNSLKPEDTAVYYCNKVVYVRSYPPRYDYWGQGTQVSVSS", "polyreactivity (PSR sort gate)": "high polyreactivity"}]}]}
